Common to all, as to test: holdup assay
Common to all, as to parameters: key: below the threshold = too weak to quantify, mostly under pKd 3.1 to 4
Details in all cases: plain residues with an end cap or a label only (N-terminal biotin on a linker: ttds)

The target of experiment [1] is T1, PDZD7_2, Q9H5P4.
T1 sequence (Q9H5P4 205-303, limits assumed, looked up): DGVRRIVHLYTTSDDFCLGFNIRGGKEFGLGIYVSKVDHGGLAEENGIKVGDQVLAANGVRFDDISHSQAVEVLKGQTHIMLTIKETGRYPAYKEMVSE

Experiment [2] addresses AHNAK2, Q8IVF2.
The target of experiment [3] is RIMS2, Q9UQ26.
Sequence of RIMS2, Q9UQ26 (Q9UQ26 637-758): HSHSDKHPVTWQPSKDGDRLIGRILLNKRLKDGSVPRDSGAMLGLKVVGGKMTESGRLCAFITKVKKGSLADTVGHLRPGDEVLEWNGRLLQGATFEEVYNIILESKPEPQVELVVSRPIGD
For experiment [4], the target named is T2, GIPC1, O14908.
T2 sequence (O14908 128-223, limits assumed, looked up): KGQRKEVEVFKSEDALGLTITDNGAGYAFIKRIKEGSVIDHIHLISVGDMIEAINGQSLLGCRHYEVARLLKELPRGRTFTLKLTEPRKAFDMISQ

The target of experiment [5] is T3, SHANK2, Q9UPX8.
T3 sequence (Q9UPX8 621-730, limits assumed, looked up): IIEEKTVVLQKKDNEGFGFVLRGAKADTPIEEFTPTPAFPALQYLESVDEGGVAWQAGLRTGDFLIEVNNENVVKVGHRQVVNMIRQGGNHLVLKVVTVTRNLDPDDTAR

Experiment [6] deals with T4, SNTB2, Q13425.
T4 sequence (Q13425 110-208, limits assumed, looked up): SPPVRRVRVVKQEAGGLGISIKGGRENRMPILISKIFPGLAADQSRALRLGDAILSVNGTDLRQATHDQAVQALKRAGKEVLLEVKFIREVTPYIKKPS

For experiment [7], the target named is T5, MPDZ_11, O75970.
T5 sequence (O75970 1720-1817, limits assumed, looked up): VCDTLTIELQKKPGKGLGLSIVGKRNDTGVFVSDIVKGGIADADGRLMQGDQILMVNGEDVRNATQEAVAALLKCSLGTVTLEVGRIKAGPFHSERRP

Experiment [8] addresses MAGI1_6, Q96QZ7.
The target in experiment [9] is T6, PDZD2_4, O15018.
T6 sequence (O15018 723-823, limits assumed, looked up): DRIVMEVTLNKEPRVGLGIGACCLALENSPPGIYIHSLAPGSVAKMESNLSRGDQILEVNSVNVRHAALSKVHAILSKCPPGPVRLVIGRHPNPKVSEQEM

Experiment [10] has as its target SCRIB_4, Q14160.
Experiment [11] addresses T7, NHERF1_1, O14745.
T7 sequence (O14745 9-104, limits assumed, looked up): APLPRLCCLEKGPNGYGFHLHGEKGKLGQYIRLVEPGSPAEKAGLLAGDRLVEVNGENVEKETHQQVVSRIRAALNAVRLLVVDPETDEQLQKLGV

Experiment [12] deals with T8, MPP1, Q00013.
T8 sequence (Q00013 66-162, limits assumed, looked up): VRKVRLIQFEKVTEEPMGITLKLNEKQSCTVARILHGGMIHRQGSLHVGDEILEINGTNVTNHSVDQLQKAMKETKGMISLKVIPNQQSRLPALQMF

For experiment [13], the target named is PARD3B_3, Q8TEW8.
Sequence of PARD3B_3, Q8TEW8 (Q8TEW8 490-594): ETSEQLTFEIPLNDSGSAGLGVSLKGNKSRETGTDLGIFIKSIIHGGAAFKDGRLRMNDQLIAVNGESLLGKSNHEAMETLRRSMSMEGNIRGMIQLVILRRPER
For experiment [14], the target named is T9, SIPA1L3, O60292.
T9 sequence (O60292 961-1052, limits assumed, looked up): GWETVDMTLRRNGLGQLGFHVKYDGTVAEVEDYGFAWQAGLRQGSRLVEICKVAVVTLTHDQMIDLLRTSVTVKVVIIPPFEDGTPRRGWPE

In experiment [15] the target is MAGI1_4, Q96QZ7.
Sequence of MAGI1_4, Q96QZ7 (Q96QZ7 other isoform, or with tags, fused parts or gaps): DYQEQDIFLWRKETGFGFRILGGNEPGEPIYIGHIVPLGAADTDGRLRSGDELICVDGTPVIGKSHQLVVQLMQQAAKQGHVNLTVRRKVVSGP
Experiment [16] has as its target RIMS1, Q86UR5.
Experiment [17] deals with MAGI3_6, Q5TCQ9.
Sequence of MAGI3_6, Q5TCQ9 (Q5TCQ9 1014-1103): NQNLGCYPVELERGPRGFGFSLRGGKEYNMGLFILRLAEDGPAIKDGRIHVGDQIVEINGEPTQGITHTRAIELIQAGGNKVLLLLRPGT
Experiment [18] has as its target PDLIM4, P50479.
Experiment [19] deals with T10, PDZD8, Q8NEN9.
T10 sequence (Q8NEN9 361-459, limits assumed, looked up): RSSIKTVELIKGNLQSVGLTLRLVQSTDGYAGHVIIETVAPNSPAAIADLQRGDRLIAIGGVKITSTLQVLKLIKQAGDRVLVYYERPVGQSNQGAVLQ

The target in experiment [20] is T11, PDZD2_5, O15018.
T11 sequence (O15018 2617-2716, limits assumed, looked up): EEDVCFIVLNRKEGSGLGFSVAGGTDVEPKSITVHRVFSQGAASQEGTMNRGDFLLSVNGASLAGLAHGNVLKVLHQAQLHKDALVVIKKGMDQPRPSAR

Experiment [21] deals with T12, USH1C_1, Q9Y6N9.
T12 sequence (Q9Y6N9 82-179, limits assumed, looked up): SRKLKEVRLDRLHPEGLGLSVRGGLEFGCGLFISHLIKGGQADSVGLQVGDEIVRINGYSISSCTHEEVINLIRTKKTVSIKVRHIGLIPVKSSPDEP

For experiment [22], the target named is T13, MPDZ_7, O75970.
T13 sequence (O75970 1146-1253, limits assumed, looked up): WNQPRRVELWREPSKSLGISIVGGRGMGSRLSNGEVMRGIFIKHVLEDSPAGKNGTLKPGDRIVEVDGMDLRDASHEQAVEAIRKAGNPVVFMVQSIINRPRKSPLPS

The target of experiment [23] is T14, PDLIM3, Q53GG5.
T14 sequence (Q53GG5 1-94, limits assumed, looked up): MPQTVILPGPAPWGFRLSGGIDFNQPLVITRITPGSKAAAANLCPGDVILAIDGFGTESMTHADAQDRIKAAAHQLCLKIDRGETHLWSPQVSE

Sequence of AHNAK2, Q8IVF2 (Q8IVF2 108-193): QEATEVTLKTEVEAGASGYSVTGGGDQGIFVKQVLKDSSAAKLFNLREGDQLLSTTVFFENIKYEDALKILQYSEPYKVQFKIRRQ
Sequence of MAGI1_6, Q96QZ7 (Q96QZ7 1146-1238): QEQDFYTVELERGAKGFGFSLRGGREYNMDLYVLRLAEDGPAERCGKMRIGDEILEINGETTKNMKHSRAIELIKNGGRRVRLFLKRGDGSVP
Sequence of RIMS1, Q86UR5 (Q86UR5 584-692): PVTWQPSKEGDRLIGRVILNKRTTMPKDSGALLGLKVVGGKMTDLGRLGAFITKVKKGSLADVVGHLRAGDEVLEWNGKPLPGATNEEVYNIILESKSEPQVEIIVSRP
Sequence of PDLIM4, P50479 (P50479 1-83): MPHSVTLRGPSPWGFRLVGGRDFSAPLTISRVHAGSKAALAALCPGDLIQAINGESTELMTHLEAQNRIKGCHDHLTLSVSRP
Sequence of SCRIB_4, Q14160 (Q14160 1095-1204): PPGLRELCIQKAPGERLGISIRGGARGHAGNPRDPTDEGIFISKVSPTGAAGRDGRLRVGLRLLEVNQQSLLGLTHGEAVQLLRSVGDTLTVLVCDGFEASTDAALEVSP

For orientation: pKd means the Kd on a negative log10 scale, so that one unit is a factor of ten. In the case of RTRQRNETQV [HPV51-E6, P26554], the pKd result in experiment [1] is “below the threshold”; in experiment [2], “below the threshold”; in [3], “below the threshold”; in experiment [4], 5.1; in experiment [5], “below the threshold”; in experiment [6] it was “below the threshold”. The pKd result in experiment [7] was “below the threshold”; in experiment [8], “below the threshold”; in experiment [9] it was 4.34; in experiment [10], 4.27; in experiment [11] it was “below the threshold”; in [12] it was 5.81. Further, the pKd result in experiment [13], in experiment [14], in [15], in experiment [16], in experiment [17] and in experiment [18] was “below the threshold” each time. The pKd result in experiment [19], in [20], in experiment [21], in experiment [22] and in [23] was “below the threshold” throughout.

These data come from publication PMC9482650, “Quantitative fragmentomics allow affinity mapping of interactomes” (Nature Communications, 2022).
